Test results as given in patent US20220106399A1 (IGM BIOSCIENCES, published 2022).
One block for each binder: values may come before it.

Tests used:
[1] = biological target: T1, Recombinant human CD40-Fc (R&D Systems) (human, UniProt P25942 21-193); assay: ELISA, plate coated with 1.6 ng/mL human CD40-Fc, detection with anti-human kappa-HRP; Bmax by one site-specific binding with Hill slope; reference anti-CD40 IgG
T1 construct: also called CD4O-Fc; not shown: Fc part of the bought fusion protein
T1 sequence (P25942 21-193 limits assumed): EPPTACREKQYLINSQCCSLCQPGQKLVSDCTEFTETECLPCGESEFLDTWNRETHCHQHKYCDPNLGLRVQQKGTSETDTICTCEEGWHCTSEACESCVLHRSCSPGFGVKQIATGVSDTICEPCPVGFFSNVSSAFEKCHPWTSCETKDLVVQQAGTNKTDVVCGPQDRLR

[2] = biological target: T1, Recombinant human CD40-Fc (R&D Systems); assay: ELISA, plate coated with 6.25 ng/mL human CD40-Fc, detection with anti-human kappa-HRP; Bmax by one site-specific binding with Hill slope; reference anti-CD40 IgG
[3] = biological target: T1, Recombinant human CD40-Fc (R&D Systems); assay: ELISA on coated human CD40-Fc (1.6 and 6.25 ng/mL)
Protocol: The binding specificity of anti-CD40 IgM and anti-CD40 IgG were measured in an ELISA assay using two different antigen densities by the following method. […] All subsequent washes used PBS+0.05% Tween and all incubation steps were performed in block buffer (2% BSA in PBS). Plates were washed three times, blocked for one hour, and then washed again. The plates were then incubated for one hour with four-fold dilutions of anti-CD40-IgG and anti-CD40-IgM. After washing, the plates were incubated with a 1:6000 dilution of anti-human kappa-HRP (Southern Biotech #9230-05) in blocking buffer for 1 hour at room temperature. The plates were again washed 5 times, and then incubated with TMB substrate (BD Biosciences #555214) for 20 minutes at room temperature. The reaction was stopped with 1M H₂SO₄ and absorbance at 450 nm was read on a SpectraMax340 plate reader (Molecular Devices) using SoftMax Pro software.
Bmax was then calculated at each coating density in GraphPad Prism software using One site-Specific binding with Hill slope. […] IgM is thus more sensitive in detecting low CD40 levels than IgG.

fold better binding than anti-CD40 IgG (ratio of Bmax) [1]: ~5.5 fold | fold better binding than anti-CD40 IgG (ratio of Bmax) [2]: ~2.3 fold
B1: anti-CD40 IgM (antibody, V domains shown)
VH: EVQLQQSGPDLVKPGASVKISCKTSGYTFTEYIMHWVKQSHGNSLEWIGGIIPNNGGTSYNQKFKDKATMTVDKSSSTGYMELRSLTSEDSAVYYCTRREVYGRNYYALDYWGQGTLVTVSS
VL: DIQMTQTTSSLSASLGDRVTITCSASQGINNYLNWYQQKPDGTVKLLIYYTSSLHSGVPSRFSGSGSGTDYSLTISNLEPEDIATYYCQQYSNLPYTFGGGTKLEIK

binding result [3]: binds
B2: anti-CD40 IgG (antibody, V domains shown)
VH: B1 VH
VL: B1 VL
notes: detection was with anti-human kappa
